Bridges are numbered along the chain shown (N, C = ends). [ ]: non-standard residue; d: D form. dPhe(4-CF3) = N[C@H](Cc1ccc(C(F)(F)F)cc1)C(=O)O; dTrp(6-F) = N[C@H](Cc1c[nH]c2cc(F)ccc12)C(=O)O; R5 = C=CCCC[C@@](C)(N)C(=O)O; FAM = carboxyfluorescein
How the values were obtained:
[1] = target: MDM2 (in HCT116 cells) (human), Q00987; experiment: cell-based or functional assay
[2] = target: Purified MDM2 (1-125) protein (human MDM2 1-125 sequence comprising a modified TEV cleavage site, pNIC-GST fusion) (human), Q00987; experiment: competitive fluorescence anisotropy (FP) against FAM-labeled 12/1 peptide on MDM2 (1-125); apparent Kd
Sequence of Purified MDM2 (1-125) protein (human MDM2 1-125 sequence comprising a modified TEV cleavage site, pNIC-GST fusion) (human), Q00987 (Q00987 1-125 limits assumed): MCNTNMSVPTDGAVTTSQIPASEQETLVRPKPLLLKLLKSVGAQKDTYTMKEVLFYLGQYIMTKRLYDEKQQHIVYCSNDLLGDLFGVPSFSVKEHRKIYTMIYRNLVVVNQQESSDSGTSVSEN

[3] = target: T1, MDM4 protein (human), O15151; experiment: direct fluorescence anisotropy titration of MDM4 against 50 nM FAM-labeled peptide; apparent Kd, 1:1 model
T1 chain: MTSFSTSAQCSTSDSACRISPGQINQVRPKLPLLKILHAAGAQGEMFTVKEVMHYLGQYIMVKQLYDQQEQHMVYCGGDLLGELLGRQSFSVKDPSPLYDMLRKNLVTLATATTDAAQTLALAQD

| Binder | p53 activity EC50 (µM) (0% FBS, 4 h) [1] | p53 activity EC50 (µM) (10% FBS, 16 h) [1] | Kd [2] [nM] | Kd [3] [nM] |
| --- | --- | --- | --- | --- |
| Ac-[dT][dA][dTrp(6-F)][dY][dA][R5][dPhe(4-CF3)][dE][dQ][R5][dL][dS][dA][dA][dA][dA][dA][dA][dA][dA][dA]-NH2 (staple 6-10; also: mixture of cis-trans isomers) [Acetyl-^DPMI-δ-(6-10 olefin staple) (D-K9D-Q, D-R12D-S, 9x(D-A) polypeptide tail)-NH2] | 50 | > 50 | 21.7 | – |
| Ac-[dT][dA][dTrp(6-F)][dY][dA][R5][dPhe(4-CF3)][dE][dQ][R5][dL][dS][dA][dA][dA][dA][dA][dA]-NH2 (staple 6-10; also: mixture of cis-trans isomers) [Acetyl-^DPMI-δ-(6-10 olefin staple) (D-K9D-Q, D-R12D-S, 6x(D-A) polypeptide tail)-NH2] | 0.61 | 0.28 | 3.2 | – |
| {FAM}-RFMDYWEGL-NH2 (also: places C-terminal amide at E7) [carboxyfluorescein (FAM)-labeled 12/1 peptide 13 (FAM-…-NH2)] | – | – | – | 4 |
